Test results reported in patent publication US10975142B2, “Endotrophin neutralization and use thereof” (THE BOARD OF REGENTS OF THE UNIVERSITY OF TEXAS SYSTEM, priority 2013, dated 2021).

B1: 10B6: rat anti-mouse endotrophin monoclonal antibody; light chain variable SEQ ID NO: 2, heavy chain variable SEQ ID NO: 4 (antibody, V domains shown)
VH: QVQLQQSGPELAKPGSSVKISCKASGYTFTSYEMHWIKQRPGQGLEWIGYIYPESGSTGYNEKFKGKATLTVDKSSPTAYMQLSSLTPDNSAVYFCTRGLRVLGYVMDVWGHGTSVTVSS
VL: DVQLTQSPSFLSASVGDRVTINCKASQNINKYLNWYQQKLGEAPKRLIYNTNNLQTGIPSRFSGSASGTDYTLTISSLHPEDFATYFCLQHSSLYTFGAGTKLELK

Tests used:
PyMT mice = test: TZD and cisplatin treatment of FP635/PyMT (PyMT) mice; format: in vivo, mouse
Description: FIGS. 19A-19F. TZD augments cisplatin sensitivity and correlates with the COL6A3 levels. FIG. 19A. FP635/PyMT mice were given TZD containing chow (supply approx. 20 mg/kg/day, rosiglitazone) or normal-diet (ND) starting at 8-weeks of age, and cisplatin (1 mg/kg) or PBS treatment was initiated at 10 weeks of age (ip., 3 times/week) over the course of tumor progression. Tumor burden was monitored with a fluorescence scanner (IVIS, Caliper life science). Quantified results are represented as mean±SD (n=8-9/group). *p=0.04, ND/CIS vs. TZD/CIS by unpaired student t-test. Metastatic burden was determined by fluorescence signals in lung tissues. FIG. 19B. Primary cancer cells isolated from tumors in PyMT mice were implanted into WT mice. TZD were given 5 days prior to cisplatin treatment (1 mg/kg, every 5 days). Tumor volumes were determined by caliper measurement and represented as mean±SD (n=5-6/group). *p<0.05 and **p<0.001, ND/CIS vs. TZD/CIS by 2-way ANOVA. FIGS. 19C-19D. Total RNA was extracted from tumor tissues in each group. mRNA levels for collagens such as COL1A1, COL6A1, -A2, and -A3 (FIG. 19C), and EMT genes such as E-cadherin, N-cadherin, Vimentin, Snail, Slug, Twist1 and Twist2 (FIG. 19D) were determined by qRT-PCR and normalized with 36B4. Quantitative results represent mean±SD (n=7/group). *p<0.05, **p<0.01, ***p<0.001 ND/PBS vs. ND/CIS; ^###p<0.001 ND/CIS vs. TZD/CIS by 2-way ANOVA. FIGS. 19E-19F. EMT indices were determined by immunostaining with E-Cadherin (FIG. 19E) and Vimentin (FIG. 19F). Cytokeratin (epithelial cells) and DAPI (nucleus) were co-stained. Staining positive area was quantified (multiple images, n=5/group). **p=0.014 (E) and *p=0.015 (F), ND/CIS vs. TZD/CIS by unpaired student t-test. Scale bars: 100 μm.
FIGS. 23A-23B: TZD confers beneficial effects on cisplatin treatment in mammary tumors. Met-1 cancer cells (0.5×10^6 cells/mouse) were implanted into wild-type mice and TZD (20 mg/kg) was given by diet and cisplatin (1 mg/kg) was intraperitoneally (ip.) injected every 5 days from 30 days post implantation (n=8/group). ***p<0.001 vs. ND by 2-way ANOVA. Tumor tissues from PyMT mice given TZD or normal diet (ND) diet were histologically assessed. […] Data represent mean±SD (n=5/group). **p=0.0042 ND vs. TZD by unpaired student t-test. Scales: 50 μm. […] Data represent mean±SD (n=5/group). *p=0.002 ND vs. TZD by unpaired student t-test. Arrows indicate staining positive cells. Scales: 25 μm.
Cisplatin (sigma, 479306) was diluted to 1 mg/ml in PBS and was sonicated briefly before injection. […]
Infrared fluorescence expressing MMTV-PyMT mice (FP635/PyMT) were imaged by IVIS scanner (Caliper lifesciences) and signal intensity was analyzed with Living image v.3.2 (Caliper lifesciences).

ETP+-cancer cells = test: allograft of FP635/ETP+-cancer cells in Matrigel plug with or without 10B6; format: in vivo, mouse
Description: FIGS. 8A-8I: 10B6 blocks ETP-mediated stromal expansion in vivo. (FIG. 8A) 10B6 (200 μg/mouse) was i.p. injected twice weekly into PyMT mice from 9 to 13 weeks of age. Tumor growth (mean±SEM; n=4-6 per group) was determined by weekly caliper measurements. *P<0.05, **P<0.01, ***P<0.001 vs. IgG control, 2-way ANOVA. (FIG. 8B) Primary mammary epithelial cancer cells were isolated from 12-week-old FP635/PyMT and FP635/PyMT/ETP mice and implanted into WT recipients with the same volume of Matrigel. For the 10B6 group, 10B6 was added in a Matrigel plug (10 μg/plug) admixed with ETP^+-cancer cells (i.e., ETP^+/10B6). A representative whole-body image was acquired 25 days after implantation using IVIS fluorescence scanner. Artificial color indicates fluorescence signal intensity accounts for tumor volume (AU). Quantitative results are represented as mean±SEM (n=3 per group). *P<0.05, unpaired t test. (FIGS. 8C-8I) 6 weeks after implantation, tumor tissues were excised from Ctrl-, ETP^+-, and ETP^+/10B6-cancer cells allografted mice and stained for H&E (FIG. 8C), Masson's Trichrome C (FIG. 8D), α-SMA (FIG. 8E), FSP-1 (FIG. 8F), CD31 (FIG. 8G), F4/80 (FIG. 8H), and Ki67 (FIG. 8I). Quantified results in FIGS. 8D-8I are mean±SEM (multiple images, n=3 per group). *P<0.05, **P<0.01, unpaired t test. Scale bars: 50 μm. (FIG. 8J) Working model for ETP in mammary tumor progression.
Isolation of mammary epithelial cancer cells and implantation procedures were as previously described. Tumor growth was monitored once weekly beginning 2 weeks after implantation.

MS-1 cells = test: in vitro angiogenesis assay (tubule formation on Matrigel); format: cell-based, mouse; conditions: 10B6 10 μg/well, 3 hours
Description: FIGS. 17A-17B. Endotrophin effects on endothelial cell migration. FIG. 17A. in vivo Matrigel bioassays were performed as described in FIG. 6J. Matrigel plugs were analyzed by H&E and immunostaining for CD31 (endothelial cell marker). Scale bars: 200 μm (H&E), and 50 μm (CD31). FIG. 17B. in vitro Angiogenesis assay. MS-1 cells (5×10^4 cells/well) were plated in triplicate on the matrigel coated 12-well plates. Tubule formation was assessed 3 hours after incubation with conditioned media derived from H293 or H293-endotrophin overexpressing cells in the presence or absence of 10B6 (10 μg/well). Scale bars: 500 μm.
A total 300 μl/well of growth factor reduced matrigel (BD biosciences) was plated into 12 well plates. MS-1 cells (5×10^4) were seeded and images were acquired 3-4 hours after incubation with the conditioned media indicated.

Molecule	EMT in tumor tissues (loss of E-cadherin or increase in vimentin) (PyMT mice; immunostaining)	metallothionein (MT) levels in tumor tissues (PyMT mice; immunostaining)	mRNA levels of COL6A3 in tumor tissues (PyMT mice; qRT-PCR)	mRNA levels for EMT transcription factors (Snail, Slug, Twist1) (PyMT mice; qRT-PCR, tumor tissues)	tumor regression (ETP+-cancer cells; 6 weeks after implantation)	ETP+-cancer cell growth (fluorescence imaging) (ETP+-cancer cells; 10B6 10 μg/plug)	ETP-mediated tumor stromal expansion (ETP+-cancer cells; H&E, 6 weeks after implantation)	ETP-mediated increase in fibrosis and stromal expansion (ETP+-cancer cells; Masson's Trichrome C, α-SMA, FSP-1, CD31, F4/80)	vasculature structure (tubule) formation induced by conditioned media from ETP-overexpressing HEK-293T cells (MS-1 cells)
N.N.[Cl][Pt][Cl] [cisplatin, cis-diammine-dichloro-platinum]	significant increase	significantly increased	significantly increased	significantly increased	–	–	–	–	–
B1	–	–	–	–	triggered tumor regression	effectively attenuated	inhibited	completely blocked	completely blocked
